In the supplement of paper PMC7877785:
± gives the uncertainty stated by the source.

Test: self-splicing fitness, log relative to wild type (ln ratio); higher = more splicing; Tetrahymena group I intron in knt gene, E. coli kanamycin selection, DiMSum; sequences stand for … in CUCUCU…GGAGGGAAAAGUUAUCAGGCAUGCACCUGGUAGCUAGUCUUUAAACCAAUAGAUUGCAUCGGUUUAAAAGGCAAGACCGUCAAAUUGCGGGAAAGGGGUCAACAGCCGUUCAGUACCAAGUCUCAGGGGAAACUUUGAGAUGGCCUUGCAAAGGGUAUGGUAAUAAGCUGACGGACAUGGUCCUAACCACGCAGCCAAGUCCUAAGUCAACAGAUCUUCUGUUGAUAUGGAUGCAGUUCACAGACUAAAUGUCGGUCGGGGAAGAUGUAUUCUUCUCAUAAGAUAUAGUCGGACCUCUCCUUAAUGGGAGCUAGCGGAUGAAGUGAUGCAACACUGGAGCCGCUGGGAACUAAUUUGUAUGCGAAAGUAUAUUGAUUAGUUUUGGAGUACUCGUGGUCG
Method in brief: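 Library with all eight P1ex-region intron nucleotides randomised, intron inside the knt kanamycin-resistance gene on pET-22b(+), in E. coli BL21(DE3). Cells grew overnight at 37°C or 30°C on LB agar with or without 25 μg/mL kanamycin (plus 100 μg/mL carbenicillin, 50 μM IPTG, 0.2% rhamnose), in six replicate transformations. Pooled colonies were amplicon-sequenced on Illumina HiSeq 2500. DiMSum fitness is the error-weighted combination of wild-type-normalised replicate fold changes, kanamycin versus none.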

Row | Sequence | self-splicing fitness (ln) (30 °C) | self-splicing fitness (ln) (37 °C)
1 | GAGGAGCAAUAUUACGCAGG | -1.91 ± 0.35 | -2.08 ± 0.36
2 | GAGGAGCAAUAUUACGCGAG |  | -2.99 ± 0.35
3 | GAGGAGCAAUAUUACGCGCA | -2.42 ± 0.2 | -0.968 ± 0.16
4 | GAGGAGCAAUAUUACGCGCU | -3.28 ± 0.16 | -2.06 ± 0.16
5 | GAGGAGCAAUAUUACGCUAC | -3.94 ± 0.37 | -2.66 ± 0.33
6 | GAGGAGCAAUAUUACGCUAG |  | -1.8 ± 0.27
7 | GAGGAGCAAUAUUACGGUAU | -2.88 ± 0.35 | -1.25 ± 0.45
8 | GAGGAGCAAUAUUACGUCAC | -2.85 ± 0.25 | 
9 | GAGGAGCAAUAUUACGUCGA | -2.17 ± 0.16 | -1.61 ± 0.15
10 | GAGGAGCAAUAUUACGUCUA | -2.04 ± 0.12 | -0.687 ± 0.15
11 | GAGGAGCAAUAUUACGUCUC |  | -0.811 ± 0.49
12 | GAGGAGCAAUAUUACGUCUG | -1.73 ± 0.15 | -1.07 ± 0.18
13 | GAGGAGCAAUAUUACGUCUU | -3.65 ± 0.2 | -2.35 ± 0.23
14 | GAGGAGCAAUAUUACGUGAA | -2.45 ± 0.3 | -1.74 ± 0.3
15 | GAGGAGCAAUAUUACGUGAC | -1.97 ± 0.3 | -0.137 ± 0.26
16 | GAGGAGCAAUAUUACGUUGU |  | -1.87 ± 0.33
17 | GAGUAGCAAUAUUACGAACC | -1.17 ± 0.12 | -0.433 ± 0.14
18 | GAGUAGCAAUAUUACGAACU | -0.979 ± 0.14 | -0.323 ± 0.23

Row | Sequence | self-splicing fitness (ln) (30 °C) | self-splicing fitness (ln) (37 °C)
19 | GAGUAGCAAUAUUACGAAGA | -2.63 ± 0.3 | 
20 | GAGUAGCAAUAUUACGAAUC | -2.47 ± 0.23 | -2.31 ± 0.24
21 | GAGUAGCAAUAUUACGACUU | -3 ± 0.15 | -2.63 ± 0.24
22 | GAGUAGCAAUAUUACGAGGU | -2.24 ± 0.35 | 
23 | GAGUAGCAAUAUUACGAUGG | -2.33 ± 0.3 | -0.76 ± 0.28
24 | GAGUAGCAAUAUUACGCUUG | -0.859 ± 0.088 | -0.313 ± 0.11
25 | GAGUAGCAAUAUUACGGCUG | -1.21 ± 0.19 | -1.54 ± 0.27
26 | GAGUAGCAAUAUUACGUAGA | -4.32 ± 0.28 | -2.18 ± 0.19
27 | GAGUAGCAAUAUUACGUCAU | -2.58 ± 0.13 | -1.47 ± 0.13
28 | GAGUAGCAAUAUUACGUGAU | -3.6 ± 0.33 | -2.12 ± 0.34
29 | GAGUAGCAAUAUUACGUGUG | -2.73 ± 0.11 | -1.87 ± 0.12
30 | GAUAAGCAAUAUUACGAAGA | -3.41 ± 0.24 | -1.7 ± 0.22
31 | GAUAAGCAAUAUUACGACUA | -0.184 ± 0.086 | -0.149 ± 0.1
32 | GAUAAGCAAUAUUACGAGCA | -2.12 ± 0.18 | -0.853 ± 0.16
33 | GAUAAGCAAUAUUACGAGUA | -1.84 ± 0.15 | -1.45 ± 0.14
34 | GAUAAGCAAUAUUACGAGUG | -1.04 ± 0.074 | -0.835 ± 0.066
35 | GAUAAGCAAUAUUACGAUAU | -1.13 ± 0.095 | -0.335 ± 0.15
